Measurements taken from publication PMC1361355.

Key:
ephrinB2 (Homo sapiens) = ephrinB2 (Homo sapiens) (UniProt P52799); details: cited from earlier work
[1] = biological target: human ephrinB2 stably expressed on CHO-pgsA745 cells (CHO-B2) (human) (UniProt P52799); assay: flow cytometry on cells

Sequence of ephrinB2 (Homo sapiens) (P52799 28-229): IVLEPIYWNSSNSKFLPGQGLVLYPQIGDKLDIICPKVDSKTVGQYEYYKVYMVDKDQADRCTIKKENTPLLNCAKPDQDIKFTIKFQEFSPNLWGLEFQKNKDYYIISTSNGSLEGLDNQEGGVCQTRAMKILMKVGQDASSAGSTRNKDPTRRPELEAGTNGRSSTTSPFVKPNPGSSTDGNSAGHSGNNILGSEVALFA
Sequence of EphB4 (P54760 16-539): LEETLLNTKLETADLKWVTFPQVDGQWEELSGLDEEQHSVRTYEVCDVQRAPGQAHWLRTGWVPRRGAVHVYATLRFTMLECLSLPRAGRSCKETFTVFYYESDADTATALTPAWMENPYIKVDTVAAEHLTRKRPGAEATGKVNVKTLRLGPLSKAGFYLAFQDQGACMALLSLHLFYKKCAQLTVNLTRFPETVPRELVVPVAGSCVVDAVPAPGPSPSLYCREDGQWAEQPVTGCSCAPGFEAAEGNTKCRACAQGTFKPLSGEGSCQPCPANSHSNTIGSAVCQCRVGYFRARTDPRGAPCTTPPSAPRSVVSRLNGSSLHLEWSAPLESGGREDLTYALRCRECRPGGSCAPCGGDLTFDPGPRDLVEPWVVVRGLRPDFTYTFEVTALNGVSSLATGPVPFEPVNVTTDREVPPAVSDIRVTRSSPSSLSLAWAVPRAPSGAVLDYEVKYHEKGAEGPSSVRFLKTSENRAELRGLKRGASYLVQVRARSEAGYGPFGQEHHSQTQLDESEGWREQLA

Row | Substance | Kd (ephrinB2 (Homo sapiens)) [nM] | Kd [1] [nM]
1 | EphB4 (from UniProt P54760) | 0.5 | 
2 | NiV-G-Fc, a fusion construct between the ectodomain of NiV-G and the Fc region of human IgG1 (from UniProt Q9IH62 71-602) (Fc fusion) |  | 0.06
